These results are taken from patent US9999664B2, “HIV-1 gp120 mini V3 loop and uses thereof” (The Scripps Research Institute, priority 2011, dated 2018).

Assay [1] concerns the target HIV-1 JR-FL envelope (Env) on pseudovirus (HIV-1 JR-FL). Briefly: cell-based or functional assay.
For assay [2], the target named is HIV-1 JR-CSF envelope (Env) on pseudovirus (HIV-1 JR-CSF) (UniProt P20871). Briefly: cell-based or functional assay.
For assay [3], the target named is gp120 JR-FL (HIV-1 JR-FL). Briefly: gp120 ELISA. Background: In an ELISA, binding on a coated surface is turned into a signal by an enzyme label.
Assay [4] addresses gp120 JR-CSF (HIV-1 JR-CSF) (UniProt P20871). Put plainly: gp120 ELISA.
Assay [5] deals with HIV-1 BaL envelope (Env) on pseudovirus (HIV-1 BaL). Briefly: cell-based or functional assay.

For PGT 128 IgG variant HC A30Q (antibody), the Fold change in neutralization (IC50 variant/IC50 WT antibody) in assay [1] was 11.4 fold; in assay [2] it was 2.4 fold. Further, the fold change in gp120 binding (EC50 variant/EC50 WT) in assay [3] came to 1.5 fold; in assay [4], 1.9 fold.

In turn, PGT 128 IgG variant HC A70D (antibody) returned a Fold change in neutralization (IC50 variant/IC50 WT antibody) in assay [2] of 1.9 fold. Besides, the figures for the fold change in gp120 binding (EC50 variant/EC50 WT) in assay [3] and in assay [4] were 1 fold and 0.5 fold, respectively.

On to PGT 128 IgG variant HC C32A (antibody), for which the Fold change in neutralization (IC50 variant/IC50 WT antibody) in assay [5] was more than 4000 fold; in assay [1], more than 3000 fold; in assay [2], more than 2000 fold.

“PGT 128 IgG variant HC C32A C52bA (antibody)”: the Fold change in neutralization (IC50 variant/IC50 WT antibody) was more than 4000 fold in assay [5], more than 3000 fold in assay [1] and more than 2000 fold in assay [2].

PGT 128 IgG variant HC C52bA (antibody): the values for the Fold change in neutralization (IC50 variant/IC50 WT antibody) in assay [5], in assay [1] and in assay [2] were more than 4000 fold, more than 3000 fold and more than 2000 fold, respectively.

As for “PGT 128 IgG variant HC D100dA (antibody)”, the Fold change in neutralization (IC50 variant/IC50 WT antibody) in assay [1] was found to be 0.3 fold; in assay [2] it was 0.5 fold. Further, the fold change in gp120 binding (EC50 variant/EC50 WT) in assay [3] and in assay [4] was 0.1 fold in each case.

In assay [2], PGT 128 IgG variant HC F79A (antibody) registered a Fold change in neutralization (IC50 variant/IC50 WT antibody) of 0.9 fold. The fold change in gp120 binding (EC50 variant/EC50 WT) was 0.6 fold in assay [3] and 0.5 fold in assay [4].

On to PGT 128 IgG variant HC K64A (antibody), for which the results for the Fold change in neutralization (IC50 variant/IC50 WT antibody) in assay [1] and in assay [2] were 1.3 fold and 1.2 fold, respectively. Also, the values for the fold change in gp120 binding (EC50 variant/EC50 WT) in assay [3] and in assay [4] were 0.4 fold and 0.8 fold, respectively.

In the case of PGT 128 IgG variant HC K75A (antibody), the Fold change in neutralization (IC50 variant/IC50 WT antibody) in assay [1] and in assay [2] was 2.9 fold throughout. Moreover, the fold change in gp120 binding (EC50 variant/EC50 WT) stood at 1.6 fold in assay [3] and 2.1 fold in assay [4].

Regarding PGT 128 IgG variant HC P74A (antibody), the Fold change in neutralization (IC50 variant/IC50 WT antibody) in assay [1] was 1.2 fold; in assay [2], 0.8 fold. Moreover, the fold change in gp120 binding (EC50 variant/EC50 WT) in assay [3] turned out to be 0.8 fold; in assay [4], 0.9 fold.

Turning to PGT 128 IgG variant HC S28A (antibody), the Fold change in neutralization (IC50 variant/IC50 WT antibody) in assay [1] was 0.9 fold; in assay [2] it was 1.2 fold. Besides, the results for the fold change in gp120 binding (EC50 variant/EC50 WT) in assay [3] and in assay [4] were 0.6 fold and 0.8 fold, respectively.

Turning to PGT 128 IgG variant HC T73A (antibody), the Fold change in neutralization (IC50 variant/IC50 WT antibody) in assay [1] was 77.6 fold; in assay [2] it was 1.6 fold. Also, the fold change in gp120 binding (EC50 variant/EC50 WT) in assay [3] was 2.2 fold; in assay [4] it was 1.6 fold.

In the case of “PGT 128 IgG variant HC T100cA (antibody)”, the figures for the Fold change in neutralization (IC50 variant/IC50 WT antibody) in assay [1] and in assay [2] were 1.2 fold and 1.5 fold, respectively. Further, the fold change in gp120 binding (EC50 variant/EC50 WT) in assay [3] came out at 0.9 fold; in assay [4], 1.2 fold.

With PGT 128 IgG variant LC D95aA (antibody), the values for the Fold change in neutralization (IC50 variant/IC50 WT antibody) in assay [5], in assay [1] and in assay [2] were more than 4000 fold, more than 3000 fold and 68.5 fold, respectively.

PGT 128 IgG variant LC N94A (antibody): the figures for the Fold change in neutralization (IC50 variant/IC50 WT antibody) in assay [1] and in assay [2] were 1.3 fold and 3.5 fold, respectively. Moreover, the fold change in gp120 binding (EC50 variant/EC50 WT) came to 1.1 fold in assay [3] and 0.7 fold in assay [4].
